Data published in patent US7425447 (Biogen, dated 2008).
Where two headings read alike, the source gives them in different places.

What was measured:
[1] = target: human B7.1 antigen (CD80), membrane associated (human) (UniProt P33681); assay: competition on B7.1 transfected CHO cells; competitor pair BB-1 and L307.4 (FIG. 8)
[2] = target: T1, human B7.1 antigen (CD80), membrane associated (human, UniProt P33681 35-288); assay: cell-based or functional assay
T1 sequence (looked up): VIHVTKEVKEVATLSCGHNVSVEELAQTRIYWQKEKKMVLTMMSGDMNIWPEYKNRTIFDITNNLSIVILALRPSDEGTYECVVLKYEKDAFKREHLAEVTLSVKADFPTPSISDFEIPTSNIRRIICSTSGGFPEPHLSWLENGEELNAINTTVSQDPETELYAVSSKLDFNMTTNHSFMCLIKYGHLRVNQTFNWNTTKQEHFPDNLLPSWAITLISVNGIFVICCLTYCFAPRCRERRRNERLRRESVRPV

[3] = target: T2, B7.1/Ig fusion protein (human, UniProt P33681 35-242, limits assumed); assay: Scatchard analysis, binding to B7-Ig coated plates (apparent Kd)
T2 construct: Secreted from CHO cells; also called B7-Ig; B7Ig; not shown: human immunoglobulin CH2 and CH3
T2 sequence (looked up): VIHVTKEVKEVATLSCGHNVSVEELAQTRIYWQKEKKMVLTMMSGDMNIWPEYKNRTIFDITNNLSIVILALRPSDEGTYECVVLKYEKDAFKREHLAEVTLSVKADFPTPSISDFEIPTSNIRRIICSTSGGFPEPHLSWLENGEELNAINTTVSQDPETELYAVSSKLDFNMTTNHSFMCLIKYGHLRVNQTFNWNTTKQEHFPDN

[4] = target: T2, B7.1/Ig fusion protein; assay: as above; remark: listed apart in the source
[5] = target: T2, B7.1/Ig fusion protein; assay: cell-based or functional assay
[6] = target: T3, B7 antigen (CD80) as used in surface plasmon resonance (UniProt P33681 35-242, limits assumed); assay: surface plasmon resonance
T3 sequence (looked up): T2 sequence (looked up)

[7] = target: T2, B7.1/Ig fusion protein; assay: competition of 125I-B7.1Ig binding to CD28 positive peripheral blood T lymphocytes (FIG. 10)

Q: Which cross-reactivity (competition) [1] does the source give for BB-1 murine anti-B7 antibody here?
A: 50%

B1: monkey monoclonal antibody 7C10 (antibody, V domains shown)
VH: QVKLQQWGEGLLQPSETLSRTCVVSGGSISGYYYWTWIRQTPGRGLEWIGHIYGNGATTNYNPSLKSRVTISKDTSKNQFFLNLNSVTDADTAVYYCARGPRPDCTTICYGGWVDVWGPGDLVTVSS
VL: AYELTQPPSVSVSPGQTARITCGGDNSRNEYVHWYQQKPARAPILVIYDDSDRPSGIPERFSGSKSGNTATLTINGVEAGDEADYYCQVWDRASDHPVFGGGTRVTVL
notes: Cynomolgus monkey antibody from a heterohybridoma; The claims (CLM-00020) say that the amino acid entries are the even numbers of each pair; also called 7C10 monkey Ig; hybridoma ATCC HB-12117
Q: How did the “inhibition of IL-2 production in mixed lymphocyte reaction” value [2] turn out when B1 was run?
A: 5 µg/mL

Q: What about the Kd [3] of the same molecule?
A: ~6.2 nM

Q: And the Kd [4]?
A: ~6.2 nM

B2: monkey monoclonal antibody 7B6 (antibody, V domains shown)
VH: EVQLVESGGGLVQPGGSLRVSCAVSGFTFSDHYMYWFRQAPGKGPEWVGFIRNKPNGGTTEYAASVKDRFTISRDDSKSIAYLQMSSLKIEDTAVYYCTTSYISHCRGGVCYGGYFEFWGQGALVTVSS
VL: EVVMTQSPLSLPITPGEPASISCRSSQSLKHSNGDTFLSWYQQKPGQPPRLLIYKVSNRDSGVPDRFSGSGAGTDFTLKISAVEAEDVGVYFCGQGTRTPPTFGGGTKVEIK
notes: Cynomolgus monkey antibody from a heterohybridoma; also called hybridoma ATCC HB-12120
Q: Which results are given for B2?
A: inhibition of IL-2 production in mixed lymphocyte reaction [2]: 5 µg/mL; Kd [3]: ~10.7 nM; Kd [4]: ~10.7 nM

B3: PRIMATIZED 16C10 (antibody, V domains shown)
VH: QVQLQESGPGLVKPSETLSLTCAVSGGSISGGYGWGWIRQPPGKGLEWIGSFYSSSGNTYYNPSLKSQVTISTDTSKNQFSLKLNSMTAADTAVYYCVRDRLFSVVGMVYNNWFDVWGPGVLVTVSS
VL: ESALTQPPSVSGAPGQKVTISCTGSTSNIGGYDLHWYQQLPGTAPKLLIYDINKRPSGISDRFSGSKSGTAASLAITGLQTEDEADYYCQSYDSSLNAQVFGGGTRLTVLG
notes: Monkey variable domains with human constant regions, made in CHO cells; Biotinylated in some assays; also called P16C10; copies: 2 + 2
Q: Which results are given for B3?
A: concentration for equivalent blocking of IL-2 production against CTLA-4Ig, anti-CD3/B7 beads (8:1) [5]: ~10 fold; Kd [6]: 4 nM; IC50 [7]: < 1 µg/mL

B4: monkey monoclonal antibody 16C10 (antibody, V domains shown)
VH: B3 VH
VL: ESALTQPPSVSGAPGQKVTISCTGSTSNIGGYDLHWYQQLPGTAPKLLIYDINKRPSGISDRFSGSKSGTAASLAITGLQTEDEADYYCQSYDSSLNAQVFGGGTRLTVL
notes: Cynomolgus monkey antibody from a heterohybridoma; also called hybridoma ATCC HB-12119
Q: What does the source list for B4?
A: inhibition of IL-2 production in mixed lymphocyte reaction [2]: 0.1 µg/mL; Kd [3]: ~8.1 nM; Kd [4]: ~8.1 nM
